Reference: US20250312499A1, “KISSPEPTIN RECEPTOR (KISS1R) TARGETED THERAPEUTICS AND USES THEREOF” (priority 2024, published 2025)
Numbered stars: 1 amine (or outer) side, 2 acyl side, 3 side chain; on linkers, the order of the positions; unused ones are H or OH. Square brackets hold non-standard residues; d marks the D form. * marks the point of attachment. X2 = 4‑amino‑1‑((3-fluoro-4-methylbenzyl)glycyl)piperidine‑4‑carboxylic acid, Cc1ccc(CN(CC(=O)N2CCC(N[*:1])(C(=O)[*:2])CC2)[*:3])cc1F; X7 = 4‑amino‑1‑(N-methylcarbamimidoyl)piperidine‑4‑carboxylic acid, CNC(=N)N1CCC(N[*:1])(C(=O)[*:2])CC1; DOTA = O=C(O)CN1CCN(CC(=O)O)CCN(CC(=O)*)CCN(CC(=O)O)CC1; Phe(4-CN) = N#Cc1ccc(C[C@H](N)C(=O)O)cc1; Phe(3-F) = N[C@@H](Cc1cccc(F)c1)C(=O)O; 2Nal = N[C@@H](Cc1ccc2ccccc2c1)C(=O)O; 4Pal = N[C@@H](Cc1ccncc1)C(=O)O; NH‑glycol = not defined here; 4Amb = NCc1ccc(C(=O)O)cc1; ABA = not defined here; APM = not defined here; Ahx = NCCCCCC(=O)O; azaGly = NNC(=O)O

B1: Compound 36 (peptide)
peptide: {DOTA-Ahx}-[dY]ENT[Phe(3-F)][azaGly]L[X2]W-NH2
SMILES: Cc1ccc(CNCC(=O)N2CCC(NC(=O)[C@H](CC(C)C)NC(=O)NNC(=O)[C@H](Cc3cccc(F)c3)NC(=O)[C@@H](NC(=O)[C@H](CC(N)=O)NC(=O)[C@H](CCC(=O)O)NC(=O)[C@@H](Cc3ccc(O)cc3)NC(=O)CCCCCNC(=O)CN3CCN(CC(=O)O)CCN(CC(=O)O)CCN(CC(=O)O)CC3)[C@@H](C)O)(C(=O)N[C@@H](Cc3c[nH]c4ccccc34)C(N)=O)CC2)cc1F
B2: Compound 27 (peptide)
peptide: {DOTA-Ahx}-[dY]KNT[Phe(3-F)][azaGly]L[X2]W-NH2
SMILES: Cc1ccc(CNCC(=O)N2CCC(NC(=O)[C@H](CC(C)C)NC(=O)NNC(=O)[C@H](Cc3cccc(F)c3)NC(=O)[C@@H](NC(=O)[C@H](CC(N)=O)NC(=O)[C@H](CCCCN)NC(=O)[C@@H](Cc3ccc(O)cc3)NC(=O)CCCCCNC(=O)CN3CCN(CC(=O)O)CCN(CC(=O)O)CCN(CC(=O)O)CC3)[C@@H](C)O)(C(=O)N[C@@H](Cc3c[nH]c4ccccc34)C(N)=O)CC2)cc1F
B3: Compound 55 (peptide)
peptide: {DOTA-Ahx}-F[azaGly]L[X2]F-NH2
SMILES: Cc1ccc(CNCC(=O)N2CCC(NC(=O)[C@H](CC(C)C)NC(=O)NNC(=O)[C@H](Cc3ccccc3)NC(=O)CCCCCNC(=O)CN3CCN(CC(=O)O)CCN(CC(=O)O)CCN(CC(=O)O)CC3)(C(=O)N[C@@H](Cc3ccccc3)C(N)=O)CC2)cc1F
B4: Compound 105 (peptide)
peptide: {DOTA-Ahx}-[dY][dW]NTF[azaGly]L[X2][4Pal]-NH2
SMILES: Cc1ccc(CNCC(=O)N2CCC(NC(=O)[C@H](CC(C)C)NC(=O)NNC(=O)[C@H](Cc3ccccc3)NC(=O)[C@@H](NC(=O)[C@H](CC(N)=O)NC(=O)[C@@H](Cc3c[nH]c4ccccc34)NC(=O)[C@@H](Cc3ccc(O)cc3)NC(=O)CCCCCNC(=O)CN3CCN(CC(=O)O)CCN(CC(=O)O)CCN(CC(=O)O)CC3)[C@@H](C)O)(C(=O)N[C@@H](Cc3ccncc3)C(N)=O)CC2)cc1F
B5: Compound 104 (peptide)
peptide: {DOTA-Ahx}-[dY][dW]NTF[azaGly]L[X2][Phe(4-CN)]-NH2
SMILES: Cc1ccc(CNCC(=O)N2CCC(NC(=O)[C@H](CC(C)C)NC(=O)NNC(=O)[C@H](Cc3ccccc3)NC(=O)[C@@H](NC(=O)[C@H](CC(N)=O)NC(=O)[C@@H](Cc3c[nH]c4ccccc34)NC(=O)[C@@H](Cc3ccc(O)cc3)NC(=O)CCCCCNC(=O)CN3CCN(CC(=O)O)CCN(CC(=O)O)CCN(CC(=O)O)CC3)[C@@H](C)O)(C(=O)N[C@@H](Cc3ccc(C#N)cc3)C(N)=O)CC2)cc1F
B6: Compound 32 (peptide)
peptide: {DOTA-Ahx}-[dY][dH][dW]NTF[azaGly]L[X2]W-NH2
SMILES: Cc1ccc(CNCC(=O)N2CCC(NC(=O)[C@H](CC(C)C)NC(=O)NNC(=O)[C@H](Cc3ccccc3)NC(=O)[C@@H](NC(=O)[C@H](CC(N)=O)NC(=O)[C@@H](Cc3c[nH]c4ccccc34)NC(=O)[C@@H](Cc3c[nH]cn3)NC(=O)[C@@H](Cc3ccc(O)cc3)NC(=O)CCCCCNC(=O)CN3CCN(CC(=O)O)CCN(CC(=O)O)CCN(CC(=O)O)CC3)[C@@H](C)O)(C(=O)N[C@@H](Cc3c[nH]c4ccccc34)C(N)=O)CC2)cc1F
B7: Compound 106 (peptide)
peptide: {DOTA-Ahx}-[dY]N[dW]NTF[azaGly]L[X2][4Pal]-NH2
SMILES: Cc1ccc(CNCC(=O)N2CCC(NC(=O)[C@H](CC(C)C)NC(=O)NNC(=O)[C@H](Cc3ccccc3)NC(=O)[C@@H](NC(=O)[C@H](CC(N)=O)NC(=O)[C@@H](Cc3c[nH]c4ccccc34)NC(=O)[C@H](CC(N)=O)NC(=O)[C@@H](Cc3ccc(O)cc3)NC(=O)CCCCCNC(=O)CN3CCN(CC(=O)O)CCN(CC(=O)O)CCN(CC(=O)O)CC3)[C@@H](C)O)(C(=O)N[C@@H](Cc3ccncc3)C(N)=O)CC2)cc1F
B8: Compound 26 (peptide)
peptide: {DOTA-Ahx}-NTF[azaGly]L[X2]W-NH2
SMILES: Cc1ccc(CNCC(=O)N2CCC(NC(=O)[C@H](CC(C)C)NC(=O)NNC(=O)[C@H](Cc3ccccc3)NC(=O)[C@@H](NC(=O)[C@H](CC(N)=O)NC(=O)CCCCCNC(=O)CN3CCN(CC(=O)O)CCN(CC(=O)O)CCN(CC(=O)O)CC3)[C@@H](C)O)(C(=O)N[C@@H](Cc3c[nH]c4ccccc34)C(N)=O)CC2)cc1F
B9: Compound 109 (peptide)
peptide: {DOTA-4Amb}-F[azaGly]L[X2]W-NH2
SMILES: Cc1ccc(CNCC(=O)N2CCC(NC(=O)[C@H](CC(C)C)NC(=O)NNC(=O)[C@H](Cc3ccccc3)NC(=O)c3ccc(CNC(=O)CN4CCN(CC(=O)O)CCN(CC(=O)O)CCN(CC(=O)O)CC4)cc3)(C(=O)N[C@@H](Cc3c[nH]c4ccccc34)C(N)=O)CC2)cc1F
B10: Compound 91 (peptide)
peptide: {DOTA-Ahx}-[dY][dW]NTF[azaGly]L[X7]W-NH2
SMILES: CNC(=N)N1CCC(NC(=O)[C@H](CC(C)C)NC(=O)NNC(=O)[C@H](Cc2ccccc2)NC(=O)[C@@H](NC(=O)[C@H](CC(N)=O)NC(=O)[C@@H](Cc2c[nH]c3ccccc23)NC(=O)[C@@H](Cc2ccc(O)cc2)NC(=O)CCCCCNC(=O)CN2CCN(CC(=O)O)CCN(CC(=O)O)CCN(CC(=O)O)CC2)[C@@H](C)O)(C(=O)N[C@@H](Cc2c[nH]c3ccccc23)C(N)=O)CC1
B11: Compound 2 (peptide)
peptide: {DOTA-Ahx}-F[azaGly]L[X2]W-NH2
SMILES: Cc1ccc(CNCC(=O)N2CCC(NC(=O)[C@H](CC(C)C)NC(=O)NNC(=O)[C@H](Cc3ccccc3)NC(=O)CCCCCNC(=O)CN3CCN(CC(=O)O)CCN(CC(=O)O)CCN(CC(=O)O)CC3)(C(=O)N[C@@H](Cc3c[nH]c4ccccc34)C(N)=O)CC2)cc1F
B12: Compound 107 (peptide)
peptide: {DOTA-Ahx}-[dY][dH][dW]NTF[azaGly]L[X2][4Pal]-NH2
SMILES: Cc1ccc(CNCC(=O)N2CCC(NC(=O)[C@H](CC(C)C)NC(=O)NNC(=O)[C@H](Cc3ccccc3)NC(=O)[C@@H](NC(=O)[C@H](CC(N)=O)NC(=O)[C@@H](Cc3c[nH]c4ccccc34)NC(=O)[C@@H](Cc3c[nH]cn3)NC(=O)[C@@H](Cc3ccc(O)cc3)NC(=O)CCCCCNC(=O)CN3CCN(CC(=O)O)CCN(CC(=O)O)CCN(CC(=O)O)CC3)[C@@H](C)O)(C(=O)N[C@@H](Cc3ccncc3)C(N)=O)CC2)cc1F
B13: Compound 35 (peptide)
peptide: {DOTA-Ahx}-[dY]WNT[Phe(3-F)][azaGly]L[X2]W-NH2
SMILES: Cc1ccc(CNCC(=O)N2CCC(NC(=O)[C@H](CC(C)C)NC(=O)NNC(=O)[C@H](Cc3cccc(F)c3)NC(=O)[C@@H](NC(=O)[C@H](CC(N)=O)NC(=O)[C@H](Cc3c[nH]c4ccccc34)NC(=O)[C@@H](Cc3ccc(O)cc3)NC(=O)CCCCCNC(=O)CN3CCN(CC(=O)O)CCN(CC(=O)O)CCN(CC(=O)O)CC3)[C@@H](C)O)(C(=O)N[C@@H](Cc3c[nH]c4ccccc34)C(N)=O)CC2)cc1F
B14: Compound 30 (peptide)
peptide: {DOTA-Ahx}-[dW]NTF[azaGly]L[X2]W-NH2
SMILES: Cc1ccc(CNCC(=O)N2CCC(NC(=O)[C@H](CC(C)C)NC(=O)NNC(=O)[C@H](Cc3ccccc3)NC(=O)[C@@H](NC(=O)[C@H](CC(N)=O)NC(=O)[C@@H](Cc3c[nH]c4ccccc34)NC(=O)CCCCCNC(=O)CN3CCN(CC(=O)O)CCN(CC(=O)O)CCN(CC(=O)O)CC3)[C@@H](C)O)(C(=O)N[C@@H](Cc3c[nH]c4ccccc34)C(N)=O)CC2)cc1F
B15: Compound 108 (peptide)
peptide: {DOTA-Ahx}-[dY][azaGly]NTF[azaGly]L[X2]W-NH2
SMILES: Cc1ccc(CNCC(=O)N2CCC(NC(=O)[C@H](CC(C)C)NC(=O)NNC(=O)[C@H](Cc3ccccc3)NC(=O)[C@@H](NC(=O)[C@H](CC(N)=O)NC(=O)NNC(=O)[C@@H](Cc3ccc(O)cc3)NC(=O)CCCCCNC(=O)CN3CCN(CC(=O)O)CCN(CC(=O)O)CCN(CC(=O)O)CC3)[C@@H](C)O)(C(=O)N[C@@H](Cc3c[nH]c4ccccc34)C(N)=O)CC2)cc1F

Biological target: human kisspeptin receptor (KISS1R) (human), Q969F8
Experiment: radioligand competition, hKISS1R membranes; legend: A is <10 nM

Sequence of human kisspeptin receptor (KISS1R) (human), Q969F8 (Q969F8 whole entry): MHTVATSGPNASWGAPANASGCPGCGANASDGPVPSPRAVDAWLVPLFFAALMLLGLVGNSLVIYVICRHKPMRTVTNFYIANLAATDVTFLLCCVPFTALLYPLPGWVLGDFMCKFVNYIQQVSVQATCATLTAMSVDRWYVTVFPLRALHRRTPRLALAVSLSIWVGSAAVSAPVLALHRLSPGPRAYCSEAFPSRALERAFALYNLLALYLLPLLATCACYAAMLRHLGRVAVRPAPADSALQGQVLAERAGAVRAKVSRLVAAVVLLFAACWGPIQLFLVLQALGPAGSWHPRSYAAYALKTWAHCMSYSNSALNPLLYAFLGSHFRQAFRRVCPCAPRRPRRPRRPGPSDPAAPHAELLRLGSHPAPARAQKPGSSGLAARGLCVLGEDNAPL

Row | Binder | Ki [nM]
1 | B1 | < 10
2 | {DOTA-ABA}-F[azaGly]L[X2]W-NH2 (reading uncertain) [Compound 50] | < 10
3 | {DOTA-APM}-F[azaGly]L[X2]W-NH2 (reading uncertain) [Compound 28] | < 10
4 | B2 | < 10
5 | B3 | < 10
6 | B4 | < 10
7 | {DOTA-APM}-[dY][dW]NT[Phe(3-F)][azaGly]L[X2]W-NH2 (reading uncertain) [Compound 34] | < 10
8 | B5 | < 10
9 | B6 | < 10
10 | B7 | < 10
11 | {HO‑PEG3‑C(:O)}-[dY]K(DOTA)NT[Phe(3-F)][azaGly]L[X2]W-NH2 [Compound 64] | < 10
12 | B8 | < 10
13 | {DOTA-APM}-[dY][dH][dW]NTF[azaGly]L[X2]W-NH2 (reading uncertain) [Compound 33] | < 10
14 | B9 | < 10
15 | B10 | < 10
16 | B11 | < 10
17 | {DOTA-NH‑glycol}-[dY][dW]NTF[azaGly]L[X2]W-NH2 (reading uncertain) [Compound 57] | < 10
18 | B12 | < 10
19 | B13 | < 10
20 | B14 | < 10
21 | {DOTA-NH‑glycol}-[dY][2Nal]NTF[azaGly]L[X2]W-NH2 (reading uncertain) [Compound 58] | < 10
22 | B15 | < 10
23 | {DOTA}-KF[azaGly]L[X2]W-NH2 [Compound 37] | < 10
